We go through four molecules from patent publication US20110256144A1 (TORAY INDUSTRIES, published 2011).

Assay [1] addresses T1, human CAPRIN-1 protein on human cancer cells (human, UniProt Q14444 2-709).
T1 sequence (looked up): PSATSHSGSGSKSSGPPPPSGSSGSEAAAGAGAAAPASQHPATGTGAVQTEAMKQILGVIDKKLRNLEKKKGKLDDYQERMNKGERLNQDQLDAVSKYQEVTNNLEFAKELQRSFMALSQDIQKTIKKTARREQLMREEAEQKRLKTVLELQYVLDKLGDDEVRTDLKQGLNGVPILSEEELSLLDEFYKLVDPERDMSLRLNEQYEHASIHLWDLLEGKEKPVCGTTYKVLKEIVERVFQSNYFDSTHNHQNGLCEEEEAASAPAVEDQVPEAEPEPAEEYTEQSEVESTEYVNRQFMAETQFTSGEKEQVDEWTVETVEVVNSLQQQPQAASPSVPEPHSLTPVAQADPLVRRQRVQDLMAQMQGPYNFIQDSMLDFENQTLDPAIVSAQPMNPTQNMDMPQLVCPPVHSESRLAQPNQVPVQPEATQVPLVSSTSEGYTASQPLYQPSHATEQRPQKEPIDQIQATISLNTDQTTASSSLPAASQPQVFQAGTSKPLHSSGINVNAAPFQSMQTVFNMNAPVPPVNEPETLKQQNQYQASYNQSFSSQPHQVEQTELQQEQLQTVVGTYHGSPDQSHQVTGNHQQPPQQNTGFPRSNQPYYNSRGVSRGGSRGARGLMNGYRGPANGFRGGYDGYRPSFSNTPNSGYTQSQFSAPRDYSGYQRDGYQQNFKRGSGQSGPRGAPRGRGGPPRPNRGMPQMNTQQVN
The assay is described as follows: cell-based or functional assay.

For assay [2], the target named is T1, human CAPRIN-1 protein on human cancer …. The assay is described as follows: flow cytometry, hybridoma supernatant on human breast cancer, glioma, kidney, gastric, colon, lung cancer and leukemia cell lines; increase in MFI over control. The protocol:
Each cell line (10⁶ cells) was centrifuged in a 1.5-ml microcentrifugal tube. The hybridoma supernatants (100 μl each) containing monoclonal antibodies #1 to #10 against CAPRIN-1 prepared in Example 4 reacting to cancer cell surfaces were separately added thereto and then left to stand on ice for 1 hour. After washing with PBS, each resultant was suspended in an FITC-labeled goat anti-mouse IgG antibody (Invitrogen Corporation) diluted 500-fold with PBS containing 0.1% FBS and then left to stand on ice for 1 hour. After washing with PBS, fluorescence intensity was measured using FACSCalibur (Becton, Dickinson and Company). Meanwhile, a procedure similar to the above was performed using, as a control, the control antibody prepared in (5) above instead of the hybridoma supernatants containing monoclonal antibodies #1 to […] against CAPRIN-1, so that a control was prepared. […] Based on the above, it was confirmed that the CAPRIN-1 protein was expressed on the cell surfaces of the above human cancer cell lines. In addition, the rate of increase in fluorescence intensity is represented by the rate of increase in mean fluorescence intensity (MFI value) in cells. It was calculated by the following equation.
(In flow cytometry, cells or beads pass a laser one at a time.)

B1: monoclonal antibody #7 against CAPRIN-1 (antibody, V domains shown)
VH: LQESGAELARPGASVKLSCKASGYTFTSYWMQWVKQRPGQGLEWIGAIYPGDGDTRYTQKFKGKATLTADKSSSTAYMQLSSLASEDSAVYYCARGEYGNYFAYWGQGTTVTVSS
VL: TSDASLGERVTITCKASQDINSYLSWFQQKPGKSPKTLIYRANRLVDGVPSRFSGSGSGQDYSLTISSLEYEDMGIYYCLQYDEFPLTFGGGTKLEIKQ
notes: Mouse monoclonal antibody from a hybridoma; also called the #7 monoclonal antibody to CAPRIN-1; antibody (g)
Turning to B1, in assay [1], the “ADCC activity (chromium 51 release, mouse lymphocytes), MDA-MB-157 cells” value (from here on “ADCC activity”) is ≥ 20% and the “CDC activity (chromium 51 release, rabbit serum), MDA-MB-231V cells” value (“CDC activity” below) was ≥ 30%. For the same molecule, in assay [2], the “increase in fluorescence intensity over control” value (from here on “increase”) was ≥ 30%.

B2: monoclonal antibody #1 against CAPRIN-1 (antibody, V domains shown)
VH: EVQLHQFGAELVKPGASVKISCKASGYTFTDYNMDWVKQSHGKSLEWIGDINPNYDSTSYNQKFKGKATLTVDKSSSTAYMELRSLTSEDTAVYYCARSRSYDYEGFAYWGQGTLVTVSA
VL: DIQMTQSPASLSASVGETVTITCRASGNIHNYLAWYQQKQGKSPQLLVYNAKTLADGVPSRFSGSGSGTQYSLKINSLQPEDFGSYYCQHFWSTLTFGAGTKLELKR
notes: also called the #1 monoclonal antibody to CAPRIN-1; antibody (a)
As for B2, in assay [1], the “ADCC activity” value is ≥ 20% and the “CDC activity” value is ≥ 30%. In addition, the “increase” value in assay [2] is ≥ 30%.

B3: monoclonal antibody #3 against CAPRIN-1 (antibody, V domains shown)
VH: EVQLHQFGAELVKPGASVKISCKASGYTFTDYNMDWVKQSHGKSLEWIGDINPNYDSTSYNQKFKGKATLTVDKSSSTAYMELRSLTSEDTAVYYCARSRSYDYEGFAYWGQGTLVTVSA
VL: DIQLTQSPASLSASVGETVTITCRASGNIHNYLAWYQQKQGKSPQLLVYNAKTLADGVPSRFSGSGSGTQYSLKINSLQPEDFGSYYCQHFWSTLTFGGGTKLEIK
notes: Mouse monoclonal antibody from a hybridoma; also called the #3 monoclonal antibody to CAPRIN-1; antibody (c)
Take B3: in assay [1], the “ADCC activity” value was ≥ 20% and the “CDC activity” value was ≥ 30%. In addition, in assay [2], the “increase” value is ≥ 30%.

B4: monoclonal antibody #4 against CAPRIN-1 (antibody, V domains shown)
VH: EVQLHQFGAELVKPGASVKISCKASGYTFTDYNMDWVKQSHGKSLEWIGDINPNYDSTSYNQKFKGKATLTVDKSSSTAYMELRSLTSEDTAVYYCARSRSYDYEGFAYWGQGTLVTVSA
VL: SGDRVSLSCRASQSISNYLHWYQQKSHESPRLLIKYASQSISGIPSRFSGSGSGTDFTLSINSVETEDFGMYFCQQSNSWPYTFGAGTKLEIKQ
notes: Mouse monoclonal antibody from a hybridoma; also called the #4 monoclonal antibody to CAPRIN-1; antibody (d)
As to B4, in assay [1], the “ADCC activity” value is ≥ 20% and the “CDC activity” value was ≥ 30%. Further, the “increase” value in assay [2] is ≥ 30%.
